Target: T1, 6His-Sld3 (budding yeast, UniProt P53135 1-668)
T1 construct: Sld3, budding yeast; Tag end read from the printed order 6His-SLD3; also called pET28a-SLD3; source: E. coli BL21 (DE3) CodonPlus RIL, purified (Ni2+ columns); not shown: 6His, N-terminal, kept
T1 sequence (looked up): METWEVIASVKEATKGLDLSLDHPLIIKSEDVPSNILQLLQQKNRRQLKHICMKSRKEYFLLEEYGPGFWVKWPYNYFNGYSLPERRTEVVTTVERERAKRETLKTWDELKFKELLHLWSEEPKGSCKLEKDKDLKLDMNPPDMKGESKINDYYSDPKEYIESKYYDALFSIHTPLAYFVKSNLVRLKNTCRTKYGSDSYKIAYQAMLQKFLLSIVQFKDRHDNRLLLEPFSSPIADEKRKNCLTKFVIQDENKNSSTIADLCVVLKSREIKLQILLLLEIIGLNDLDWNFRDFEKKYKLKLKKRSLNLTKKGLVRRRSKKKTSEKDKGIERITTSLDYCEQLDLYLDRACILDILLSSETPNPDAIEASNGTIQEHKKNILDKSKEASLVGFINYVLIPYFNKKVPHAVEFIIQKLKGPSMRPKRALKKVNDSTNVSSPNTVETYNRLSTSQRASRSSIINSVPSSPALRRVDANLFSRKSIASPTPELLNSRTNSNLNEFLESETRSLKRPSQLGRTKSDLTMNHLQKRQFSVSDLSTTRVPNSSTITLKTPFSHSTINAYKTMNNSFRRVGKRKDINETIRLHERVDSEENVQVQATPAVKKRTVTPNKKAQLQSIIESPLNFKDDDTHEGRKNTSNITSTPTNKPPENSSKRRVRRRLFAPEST
Assay: pull-down; 2 μg 6His-Sld3 and 5 μg GST-Mcm6 or GST-Mcm2 with glutathione-Sepharose beads; 40 mM Tris-HCl pH 7.5, 100 mM NaCl, 0.1 mM EDTA, 10% glycerol, 0.1% Triton X-100, 1 mM DTT, 1 mg/ml BSA; 1 h at 4°C; immunoblots with anti-His and anti-GST
Settings: both partners purified

binding result: binds
B1: GST-Mcm2N (1–390) (domain or fragment, budding yeast, UniProt P29469 1-390, looked up)
chain: MSDNRRRRREEDDSDSENELPPSSPQQHFRGGMNPVSSPIGSPDMINPEGDDNEVDDVPDIDEVEEQMNEVDLMDDNMYEDYAADHNRDRYDPDQVDDREQQELSLSERRRIDAQLNERDRLLRNVAYIDDEDEEQEGAAQLDEMGLPVQRRRRRRQYEDLENSDDDLLSDMDIDPLREELTLESLSNVKANSYSEWITQPNVSRTIARELKSFLLEYTDETGRSVYGARIRTLGEMNSESLEVNYRHLAESKAILALFLAKCPEEMLKIFDLVAMEATELHYPDYARIHSEIHVRISDFPTIYSLRELRESNLSSLVRVTGVVTRRTGVFPQLKYVKFNCLKCGSILGPFFQDSNEEIRISFCTNCKSKGPFRVNGEKTVYRNYQRVTL
notes: Mcm2, budding yeast, residues 1-390; Tag end read from the printed order GST-mcm2(1–390); also called GST-Mcm2 (1–390); pGEX-4T -1-mcm2(1–390); source: E. coli BL21 (DE3) CodonPlus RIL, purified as previously described (Quan et al., 2015); not shown: GST, N-terminal, kept
